Test results from patent US20040009898A1 (UNIVERSITY OF IOWA RESEARCH FOUNDATION, published 2004).
No end group written: not given here.

Molecular target: urokinase plasminogen activator receptor (uPAR) on differentiated human airway epithelia (human, UniProt Q03405 23-305, GPI-linked)
Assay: cell-based or functional assay

Chain of urokinase plasminogen activator receptor (uPAR) on differentiated human airway epithelia (Q03405 23-305): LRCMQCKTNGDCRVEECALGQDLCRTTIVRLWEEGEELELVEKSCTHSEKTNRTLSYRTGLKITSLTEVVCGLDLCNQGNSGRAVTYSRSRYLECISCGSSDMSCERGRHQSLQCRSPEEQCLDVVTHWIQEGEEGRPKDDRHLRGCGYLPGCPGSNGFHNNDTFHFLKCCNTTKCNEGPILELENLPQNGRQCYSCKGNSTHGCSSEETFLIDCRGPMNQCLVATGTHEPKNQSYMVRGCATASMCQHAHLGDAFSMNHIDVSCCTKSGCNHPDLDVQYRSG

B1: u7-peptide coupled through PEG to the capsid of adenovirus Ad2/βgal-4 (other)
peptide: CLNGGTC
modifications: not fully specified; also: coupled through bifunctional PEG to adenovirus capsid, terminal Cys with free sulfhydryl used for coupling
gene transfer (β-galactosidase) to human airway epithelia: 10 fold
